# Reference: paper PMC6609335
# Experiments:
# [1] = molecular target: Andes virus (ANDV) envelope glycoprotein Gc, wild type (Andes virus) (UniProt Q9E006); test: sucrose gradient sedimentation
# [2] = molecular target: Andes virus (ANDV) envelope glycoprotein Gc, wild type (Andes virus) (UniProt Q9E006); test: native gel or EMSA
substance,measurement,setting,value
"Andes virus (ANDV) envelope glycoprotein Gc, wild type (from UniProt Q9E006) (natural protein)",stoichiometry N,[1],3
same,stoichiometry N,[2],3
